Assay results: the supplement of paper PMC7877785
± gives the uncertainty stated by the source.

Experiment: self-splicing fitness, log relative to wild type (ln ratio); higher = more splicing; Tetrahymena group I intron in knt gene, E. coli kanamycin selection, DiMSum; sequences stand for … in CUCUCU…GGAGGGAAAAGUUAUCAGGCAUGCACCUGGUAGCUAGUCUUUAAACCAAUAGAUUGCAUCGGUUUAAAAGGCAAGACCGUCAAAUUGCGGGAAAGGGGUCAACAGCCGUUCAGUACCAAGUCUCAGGGGAAACUUUGAGAUGGCCUUGCAAAGGGUAUGGUAAUAAGCUGACGGACAUGGUCCUAACCACGCAGCCAAGUCCUAAGUCAACAGAUCUUCUGUUGAUAUGGAUGCAGUUCACAGACUAAAUGUCGGUCGGGGAAGAUGUAUUCUUCUCAUAAGAUAUAGUCGGACCUCUCCUUAAUGGGAGCUAGCGGAUGAAGUGAUGCAACACUGGAGCCGCUGGGAACUAAUUUGUAUGCGAAAGUAUAUUGAUUAGUUUUGGAGUACUCGUGGUCG
Procedure, shortened: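 A randomised library covering all eight P1ex-region intron nucleotides was built with the intron in the knt kanamycin-resistance gene on pET-22b(+) and held in E. coli BL21(DE3). Cells were grown overnight at 37°C or 30°C on LB agar, with or without 25 μg/mL kanamycin, plus 100 μg/mL carbenicillin, 50 μM IPTG and 0.2% rhamnose, and pooled colonies were amplicon-sequenced on an Illumina HiSeq 2500. DiMSum fitness is the error-weighted combination of wild-type-normalised replicate fold changes, kanamycin versus none.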

Row | Sequence | self-splicing fitness (ln) (30 °C) | self-splicing fitness (ln) (37 °C)
1 | AGCUAGCAAUAUUACGAGGU | -2.73 ± 0.14 | -1.31 ± 0.13
2 | AGCUAGCAAUAUUACGAACG | -0.938 ± 0.19 | -1.61 ± 0.18
3 | GGGGAGCAAUAUUACGGGAG |  | -1.53 ± 0.39
4 | AAGAAGCAAUAUUACGGGGU | -4.04 ± 0.29 | -2.64 ± 0.2
5 | CGAUAGCAAUAUUACGUGAC | -2.87 ± 0.18 | -2.36 ± 0.23
6 | AUCGAGCAAUAUUACGUUAU | -3.5 ± 0.26 | -2.59 ± 0.28
7 | AAACAGCAAUAUUACGAAGU | -3.41 ± 0.2 | -2.21 ± 0.17
8 | UACCAGCAAUAUUACGUUAG | -1.18 ± 0.068 | -1.16 ± 0.067
9 | UUAGAGCAAUAUUACGAAGG | -1.72 ± 0.14 | -1.9 ± 0.23
10 | AAAAAGCAAUAUUACGGGGC | -3.33 ± 0.16 | -2.43 ± 0.18
11 | CCGGAGCAAUAUUACGGACC | -2.12 ± 0.4 | -1.64 ± 0.45
12 | GUUUAGCAAUAUUACGCAUG | -2.59 ± 0.18 | -0.4 ± 0.18
13 | CCUUAGCAAUAUUACGCCAG |  | -2.05 ± 0.45
14 | UCUCAGCAAUAUUACGCUAG | -2.76 ± 0.25 | -1.8 ± 0.25
15 | GCACAGCAAUAUUACGAGGA | -2.11 ± 0.096 | -1.23 ± 0.099
16 | ACCAAGCAAUAUUACGGAAC | -3.63 ± 0.21 | -1.99 ± 0.2
17 | UGCGAGCAAUAUUACGAACU | -1.88 ± 0.11 | 0.0543 ± 0.09
18 | CCCAAGCAAUAUUACGCACA | -2.53 ± 0.2 | -2.19 ± 0.31
19 | UACUAGCAAUAUUACGCUAG | -3.86 ± 0.25 | -2.08 ± 0.21
20 | ACUCAGCAAUAUUACGAGCA | -0.632 ± 0.068 | 0.302 ± 0.092
21 | UAAUAGCAAUAUUACGACAA | -2.23 ± 0.16 | -1.01 ± 0.14
22 | AGAUAGCAAUAUUACGACCA | -0.39 ± 0.16 | 1.11 ± 0.2

Row | Sequence | self-splicing fitness (ln) (30 °C) | self-splicing fitness (ln) (37 °C)
23 | CAGCAGCAAUAUUACGCUCG | -1.95 ± 0.16 | -0.385 ± 0.21
24 | CUGGAGCAAUAUUACGAGUA | -2.08 ± 0.26 | -3.21 ± 0.35
25 | GAACAGCAAUAUUACGUUUU | -3.06 ± 0.083 | -2.25 ± 0.11
26 | CGUGAGCAAUAUUACGGGCU | -1.5 ± 0.18 | -2.67 ± 0.39
27 | CCCGAGCAAUAUUACGGCUU | -3.29 ± 0.17 | -2.71 ± 0.2
28 | GGUCAGCAAUAUUACGGGCA | -0.684 ± 0.1 | -0.119 ± 0.11
29 | AAUCAGCAAUAUUACGGCAA | -0.417 ± 0.074 | 0.747 ± 0.091
30 | AAGGAGCAAUAUUACGACAA | -2.38 ± 0.2 | -2.16 ± 0.33
31 | GGUAAGCAAUAUUACGUUAA | -2.57 ± 0.29 | -1.37 ± 0.2
32 | UGCGAGCAAUAUUACGUAGU |  | -1.9 ± 0.19
33 | GUCUAGCAAUAUUACGGGUC | -2.14 ± 0.2 | -1.67 ± 0.17
34 | ACUAAGCAAUAUUACGAAAU | -2.67 ± 0.16 | -1.22 ± 0.17
35 | CUCCAGCAAUAUUACGAAUG | -1.39 ± 0.083 | -0.438 ± 0.11
36 | UACAAGCAAUAUUACGGUUU | -1.86 ± 0.093 | -0.738 ± 0.095
37 | AGGGAGCAAUAUUACGCUCA | -1.16 ± 0.11 | -1.14 ± 0.13
38 | CAAAAGCAAUAUUACGCCCA | -1.69 ± 0.21 | -0.538 ± 0.2
39 | AAUUAGCAAUAUUACGGACG | -1.29 ± 0.16 | 0.266 ± 0.12
40 | UAGCAGCAAUAUUACGAGGC |  | -3.43 ± 0.31
41 | CAUCAGCAAUAUUACGUGAG | -0.345 ± 0.055 | -0.244 ± 0.073
42 | ACCAAGCAAUAUUACGUCUG | -2.55 ± 0.1 | -1.02 ± 0.1
43 | UAGGAGCAAUAUUACGCUCC |  | -2.28 ± 0.25
